Reference: patent publication US20190367633A1 (published 2019)
Several values for one entry are separate records, joined by “and”; a condition that tells them apart may be missing. Equal values may be shown once.

Assays:
[1] = target: T1, Recombinant human PD-1-Fc (human, UniProt Q15116 25-167); test: competition
[2] = target: human HER2 (Beijing Yiyi) (human, UniProt P04626 23-652); test: ELISA
[3] = target: Recombinant human PD-1 (Beijing Yiqiao Shenzhou, Cat. No. 10377-H08H) (human, UniProt Q15116 25-167); test: ELISA
[4] = target: T1, Recombinant human PD-1-Fc; test: competition ELISA; blocking PD-1/PD-L1
[5] = target: T1, Recombinant human PD-1-Fc; test: competition ELISA; blocking PD-1/PD-L2

IC50 [1] | EC50 [2] [nM] | EC50 [3] [nM] | IC50 [4] [nM] | IC50 [5] [nM] | Binder
3.68 nM and 4.54 nM | – | – | – | – | anti-PD-1pem/anti-HER2 heterodimeric bispecific antibody (bispecific antibody) heavy 1: not shown light 1: EIVLTQSPATLSLSPGERATLSCRASKGVSTSGYSYLHWYQQKPGQAPRLLIYLASYLESGVPARFSGSGSGTDFTLTISSLEPEDFAVYYCQHSRDLPLTFGGGTKVEIKRTVAAPSVFIFPPSDEQLKSGTASVVCLLNNFYPREAKVQWKVDNALQSGNSQESVTEQDSKDSTYSLSSTLTLSKADYEKHKVYACEVTHQGLSSPVTKSFNRGEC heavy 2: not shown light 2: not shown
2.06 nM and 1.95 nM | – | – | – | – | anti-PD-1BJHM/anti-HER2 heterodimeric bispecific antibody (bispecific antibody) heavy 1: not shown light 1: DIVLTQSPATLSVTPGDSVSLSCRANQSISNNLHWYQQRSHESPRLLIRFASQSISGIPSRFSGSGSGTDFTLSINSVETEDFGMYFCQQSDNWPLTFGAGTKLEIKRTVAAPSVFIFPPSDEQLKSGTASVVCLLNNFYPREAKVQWKVDNALQSGNSQESVTEQDSKDSTYSLSSTLTLSKADYEKHKVYACEVTHQGLSSPVTKSFNRGEC heavy 2: not shown light 2: not shown

The next lines start with the binder.

Binder | IC50 [1] | EC50 [2] [nM] | EC50 [3] [nM] | IC50 [4] [nM] | IC50 [5] [nM]
PD-1 MONOCLONAL ANTIBODYBJHM (antibody, V domains shown) VH: EVQLQESGGGLVKPGGSLKLSCAASGFTFSSYGMSWVRQTPEKRLEWVASISGGGRYTYYPDSMKGRFTISRDNAKNNLHLQMSSLRSEDTALYYCVYEYFYTMDYWGQGTSVTVSS VL: DIVLTQSPATLSVTPGDSVSLSCRANQSISNNLHWYQQRSHESPRLLIRFASQSISGIPSRFSGSGSGTDFTLSINSVETEDFGMYFCQQSDNWPLTFGAGTKLEIK | – | > 20 | > 0.08 | > 1.2 | > 1.11
PD-1 MONOCLONAL ANTIBODYpem (antibody, V domains shown) VH: QVQLVQSGVEVKKPGASVKVSCKASGYTFTNYYMYWVRQAPGQGLEWMGGINPSNGGTNFNEKFKNRVTLTTDSSTTTAYMELKSLQFDDTAVYYCARRDYRFDMGFDYWGQGTTVTVSS VL: EIVLTQSPATLSLSPGERATLSCRASKGVSTSGYSYLHWYQQKPGQAPRLLIYLASYLESGVPARFSGSGSGTDFTLTISSLEPEDFAVYYCQHSRDLPLTFGGGTKVEIK | – | > 20 | – | – | –
